Source: US20220112276A1 (Janssen / Centocor, published 2022)
Substitutions are numbered along the chain they refer to.

T1: mouse pIgR extracellular domain (ECD) (mouse, UniProt O70570 19-645)
T1 construct: Bought from R&D Systems (Cat 2800-PG-050); also called mpIgR ECD
T1 sequence: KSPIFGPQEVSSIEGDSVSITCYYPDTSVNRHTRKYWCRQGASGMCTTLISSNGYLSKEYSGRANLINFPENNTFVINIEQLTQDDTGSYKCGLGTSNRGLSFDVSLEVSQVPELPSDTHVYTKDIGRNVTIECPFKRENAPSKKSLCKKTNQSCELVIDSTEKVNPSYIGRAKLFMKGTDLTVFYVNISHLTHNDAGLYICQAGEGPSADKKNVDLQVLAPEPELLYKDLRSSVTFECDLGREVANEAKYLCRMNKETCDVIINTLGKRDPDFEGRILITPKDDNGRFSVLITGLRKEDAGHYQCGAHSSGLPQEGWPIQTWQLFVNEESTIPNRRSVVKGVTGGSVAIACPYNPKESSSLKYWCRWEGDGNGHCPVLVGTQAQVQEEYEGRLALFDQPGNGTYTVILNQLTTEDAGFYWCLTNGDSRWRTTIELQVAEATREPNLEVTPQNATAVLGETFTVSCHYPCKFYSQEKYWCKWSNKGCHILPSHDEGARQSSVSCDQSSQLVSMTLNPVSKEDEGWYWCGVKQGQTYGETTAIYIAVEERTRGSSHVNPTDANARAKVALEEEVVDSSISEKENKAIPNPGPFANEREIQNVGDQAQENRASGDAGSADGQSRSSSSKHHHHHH

T2: rat pIgR extracellular domain (rat, UniProt P15083 19-643)
T2 construct: extracellular domain
T2 sequence (looked up): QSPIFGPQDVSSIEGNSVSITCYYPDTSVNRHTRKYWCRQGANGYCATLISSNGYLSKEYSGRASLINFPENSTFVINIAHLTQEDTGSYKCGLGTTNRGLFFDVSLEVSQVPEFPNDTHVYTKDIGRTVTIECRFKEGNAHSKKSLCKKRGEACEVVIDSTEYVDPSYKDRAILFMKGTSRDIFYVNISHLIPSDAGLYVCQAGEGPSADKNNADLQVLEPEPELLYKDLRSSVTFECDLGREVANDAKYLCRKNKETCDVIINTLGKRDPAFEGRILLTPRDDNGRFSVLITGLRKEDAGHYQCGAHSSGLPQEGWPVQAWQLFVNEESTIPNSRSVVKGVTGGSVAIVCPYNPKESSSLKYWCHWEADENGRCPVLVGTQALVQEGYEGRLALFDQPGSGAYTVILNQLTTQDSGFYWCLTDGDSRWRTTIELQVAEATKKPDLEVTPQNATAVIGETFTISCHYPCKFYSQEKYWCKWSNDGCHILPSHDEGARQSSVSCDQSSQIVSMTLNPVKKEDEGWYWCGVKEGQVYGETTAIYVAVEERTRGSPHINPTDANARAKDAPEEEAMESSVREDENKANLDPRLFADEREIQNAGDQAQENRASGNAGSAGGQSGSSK

B1: 01C02R3LS VHH Mono-Fc (Fc fusion)
chain: QVQLVESGGGLVQAGDSLRLSCAASGRTRTTYGMGWFRQAPGKEREFVTTITWSGSTNYKYYADSVKGRFTISRDNAKNTVYLQMNSLKPDDTAVYYCAASTVLTDPRVPTEYDYWGQGTQVTVSSSPAPELLGGPSVFLFPPKPKDTLMISRTPEVTCVVVDVSHEDPEVKFNWYVDGVEVHNAKTKPREEQYNSTYRVVSVLTVLHQDWLNGKEYKCKVSNKALPAPIEKTISKAKGQPREPQVYTKPPSREEMTKNQVSLSCLVKGFYPSDIAVEWESNGQPENNYKTTVPVLDSDGSFRLASYLTVDKSRWQQGNVFSCSVMHEALHNHYTQKSLSLSPGK
B2: 01H06R3L VHH Mono-Fc (Fc fusion)
chain: B1 chain with Q1E, S56P, V81A
B3: 02E01R3LS VHH Mono-Fc (Fc fusion)
chain: B1 chain with R29F, T105R
B4: 01C08R2L VHH Mono-Fc (Fc fusion)
chain: B1 chain with Q1E, R29F, M34V
B5: 01H11R2LS VHH Mono-Fc (Fc fusion)
chain: B1 chain with Q1E, R29L, T49A, T52K, D91E, S101G, T105G, P110L, T111N, Q121L
B6: 01B10R3L VHH Mono-Fc (Fc fusion)
chain: QVQLVESGGGLVQAGDSLRLSCAASGRTFTTYVMGWFRQPPGKEREFVATISWSGSTTYKYYADSVKGRFTISRDNAKNTVYLQMNSLKPEDTAVYYCAASTVVADPRAPNEYDYWGQGTQVTVSSSPAPELLGGPSVFLFPPKPKDTLMISRTPEVTCVVVDVSHEDPEVKFNWYVDGVEVHNAKTKPREEQYNSTYRVVSVLTVLHQDWLNGKEYKCKVSNKALPAPIEKTISKAKGQPREPQVYTKPPSREEMTKNQVSLSCLVKGFYPSDIAVEWESNGQPENNYKTTVPVLDSDGSFRLASYLTVDKSRWQQGNVFSCSVMHEALHNHYTQKSLSLSPGK
B7: 01G08R3LS VHH Mono-Fc (Fc fusion)
chain: B1 chain with R29F, A40G, T49A, A63T, D91E, V109R, P110L, T111N
B8: 01E01R3LS VHH Mono-Fc (Fc fusion)
chain: QVQLVESGGGLVQAGGSLRLSCAASGRSFSSYNMGWFRQAPGKERDLVAVVTWSGGGTSYADSVKGRFTIARDNANARLYLEMTSLKPEDTAIYYCAATQDWYGGTRAFRAASFHSWGQGTQVTVSSSPAPELLGGPSVFLFPPKPKDTLMISRTPEVTCVVVDVSHEDPEVKFNWYVDGVEVHNAKTKPREEQYNSTYRVVSVLTVLHQDWLNGKEYKCKVSNKALPAPIEKTISKAKGQPREPQVYTKPPSREEMTKNQVSLSCLVKGFYPSDIAVEWESNGQPENNYKTTVPVLDSDGSFRLASYLTVDKSRWQQGNVFSCSVMHEALHNHYTQKSLSLSPGK
B9: 01H08R3 VHH Mono-Fc (Fc fusion)
chain: QVQLVESGGGSVQTGGSLRLSCTASGRTFSNYGMGWFRQAPGKEREFVAGITRSGRTTYYYYADAVKGRFTIPRDNADNTIYLQMDSMKPDDTAVYYCAARQGENNYDPRSGSAYNYWGPGTQVTVSSSPAPELLGGPSVFLFPPKPKDTLMISRTPEVTCVVVDVSHEDPEVKFNWYVDGVEVHNAKTKPREEQYNSTYRVVSVLTVLHQDWLNGKEYKCKVSNKALPAPIEKTISKAKGQPREPQVYTKPPSREEMTKNQVSLSCLVKGFYPSDIAVEWESNGQPENNYKTTVPVLDSDGSFRLASYLTVDKSRWQQGNVFSCSVMHEALHNHYTQKSLSLSPGK
B10: 01B03R2LS VHH Mono-Fc (Fc fusion)
chain: EVQLVESGGGLVQAGDSLRLSCAASGRTGSSGAMGWFRQGPGKEREFVAALMWRNTVTYSYYADSVKGRFTISRDNAKNTAYLQMNSLKPEDTAVYYCAADPDTYGDPRNSGAYSYWGQGTLVTVSSSPAPELLGGPSVFLFPPKPKDTLMISRTPEVTCVVVDVSHEDPEVKFNWYVDGVEVHNAKTKPREEQYNSTYRVVSVLTVLHQDWLNGKEYKCKVSNKALPAPIEKTISKAKGQPREPQVYTKPPSREEMTKNQVSLSCLVKGFYPSDIAVEWESNGQPENNYKTTVPVLDSDGSFRLASYLTVDKSRWQQGNVFSCSVMHEALHNHYTQKSLSLSPGK
B11: 01A09R3LS VHH Mono-Fc (Fc fusion)
chain: QVQLVESGGGLVQAGGSLRLSCAASGRSFSSYNMVWLRQAPGKEREVVAAVTWSGGGTSYADSVKGRFTISRDNANVRVYLQMTGLKPEDTAIYYCAATQDWYGGSRAFRAASFHSWGQGTLVTVSSSPAPELLGGPSVFLFPPKPKDTLMISRTPEVTCVVVDVSHEDPEVKFNWYVDGVEVHNAKTKPREEQYNSTYRVVSVLTVLHQDWLNGKEYKCKVSNKALPAPIEKTISKAKGQPREPQVYTKPPSREEMTKNQVSLSCLVKGFYPSDIAVEWESNGQPENNYKTTVPVLDSDGSFRLASYLTVDKSRWQQGNVFSCSVMHEALHNHYTQKSLSLSPGK
B12: 02F10R3 VHH Mono-Fc (Fc fusion)
chain: EVQLVESGGGLVQPGGSLRLSCVVSGSFFSLRDMGWYRQAPGKERELVGIFTRGGTTYYADSVKGRFTISRDNAKNTVDLQMNSLKPEDTAVYTCNAEIRQYSANLYRDFWGQGTQVTVSSSPAPELLGGPSVFLFPPKPKDTLMISRTPEVTCVVVDVSHEDPEVKFNWYVDGVEVHNAKTKPREEQYNSTYRVVSVLTVLHQDWLNGKEYKCKVSNKALPAPIEKTISKAKGQPREPQVYTKPPSREEMTKNQVSLSCLVKGFYPSDIAVEWESNGQPENNYKTTVPVLDSDGSFRLASYLTVDKSRWQQGNVFSCSVMHEALHNHYTQKSLSLSPGK

What follows are binders tested against T3, human pIgR extracellular domain (ECD) (human, UniProt P01833 19-638) (assay: SPR, VHH captured by anti-Fc, ECD analyte).
T3 construct: Bought from R&D Systems (Cat 2717-PG-050); also called hpIgR ECD
T3 sequence (P01833 other isoform, or with tags, fused parts or gaps): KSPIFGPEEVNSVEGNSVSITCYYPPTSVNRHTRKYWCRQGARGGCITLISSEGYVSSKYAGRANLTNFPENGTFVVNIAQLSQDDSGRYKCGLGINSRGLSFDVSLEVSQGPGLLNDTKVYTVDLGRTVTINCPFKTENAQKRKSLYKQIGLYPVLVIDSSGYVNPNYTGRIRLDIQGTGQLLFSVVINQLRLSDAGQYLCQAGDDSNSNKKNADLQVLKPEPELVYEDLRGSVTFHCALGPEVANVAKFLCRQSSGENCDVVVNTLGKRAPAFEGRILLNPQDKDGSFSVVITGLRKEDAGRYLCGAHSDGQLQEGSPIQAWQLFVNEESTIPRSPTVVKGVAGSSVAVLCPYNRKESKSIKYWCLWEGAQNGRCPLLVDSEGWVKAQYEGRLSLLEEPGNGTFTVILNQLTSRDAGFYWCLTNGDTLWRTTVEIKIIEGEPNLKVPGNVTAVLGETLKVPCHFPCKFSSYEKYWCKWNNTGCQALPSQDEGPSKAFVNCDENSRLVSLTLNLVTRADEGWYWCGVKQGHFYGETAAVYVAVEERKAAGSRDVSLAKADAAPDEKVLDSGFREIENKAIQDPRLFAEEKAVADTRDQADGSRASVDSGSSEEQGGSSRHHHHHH
Outline: (§1)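 Single-cycle kinetics: ECD analyte from 30 nM, 3-fold series, low to high, with 30 min off-rate monitoring, over VHH captured at 0.5 ug/ml (~200-300 RU). HBSP plus 100 ug/ml BSA at 30 μL/min. Reference cell and buffer blank subtracted; global 1:1 Langmuir fit gave kon, koff, KD.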
A Kd of 8.62 nM was found for B1 in this work. A Kd of 5.26 nM was found for B2 in this work. A Kd of 5.32 nM was found for B3 in this work. A Kd of 9.44 nM was found for B4 in this work. A Kd of 4.07 nM was found for B5 in this work. A Kd of 8.4 nM was found for B6 in this work. A Kd of 8.38 nM was found for B7 in this work. A Kd of 14.5 nM was found for B8 in this work. A Kd of 61 nM was found for B9 in this work.

What follows are binders tested against T1, mouse pIgR extracellular domain (ECD) (assay: SPR, VHH captured by anti-Fc, ECD analyte).
Outline: as §1
A Kd of 6.33 nM was found for B10 in this work. A Kd of 4.96 nM was found for B1 in this work. A Kd of 4.56 nM was found for B2 in this work. A Kd of 2.77 nM was found for B3 in this work. A Kd of 5.67 nM was found for B4 in this work. A Kd of 2.67 nM was found for B5 in this work. A Kd of 3.75 nM was found for B6 in this work. A Kd of 5.6 nM was found for B7 in this work. A Kd of 34.5 nM was found for B8 in this work. A Kd of 35.2 nM was found for B11 in this work. A Kd of 3.95 nM was found for B9 in this work. A Kd of 6.15 nM was found for B12 in this work.

These binders were tested against T4, cynomolgus monkey pIgR extracellular domain (cynomolgus monkey, UniProt A0A2K5WMU9 19-638) (assay: SPR, VHH captured by anti-Fc, ECD analyte).
T4 construct: extracellular domain
T4 sequence (A0A2K5WMU9 entry or part of it): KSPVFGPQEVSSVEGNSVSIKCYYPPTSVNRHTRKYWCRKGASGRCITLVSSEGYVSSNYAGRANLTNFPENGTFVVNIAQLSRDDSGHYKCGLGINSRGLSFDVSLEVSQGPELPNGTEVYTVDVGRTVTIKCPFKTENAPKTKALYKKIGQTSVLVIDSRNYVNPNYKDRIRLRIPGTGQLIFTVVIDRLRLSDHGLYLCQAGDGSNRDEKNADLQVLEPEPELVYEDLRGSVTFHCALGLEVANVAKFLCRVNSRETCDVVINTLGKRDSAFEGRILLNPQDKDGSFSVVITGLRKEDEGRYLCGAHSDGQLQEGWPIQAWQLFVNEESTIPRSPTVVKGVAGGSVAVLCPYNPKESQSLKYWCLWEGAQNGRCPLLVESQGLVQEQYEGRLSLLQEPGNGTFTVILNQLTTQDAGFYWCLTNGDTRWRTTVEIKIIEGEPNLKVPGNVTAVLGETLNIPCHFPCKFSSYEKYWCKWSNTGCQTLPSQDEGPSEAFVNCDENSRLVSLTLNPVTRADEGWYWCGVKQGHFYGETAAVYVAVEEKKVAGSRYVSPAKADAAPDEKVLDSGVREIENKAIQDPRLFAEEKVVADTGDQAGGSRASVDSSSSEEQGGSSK
Outline: as §1
A Kd of 3.09 nM was found for B1 in this work. A Kd of 1.66 nM was found for B2 in this work. A Kd of 5.05 nM was found for B3 in this work. A Kd of 4.14 nM was found for B4 in this work. A Kd of 2.31 nM was found for B5 in this work. A Kd of 2.19 nM was found for B6 in this work. A Kd of 5.42 nM was found for B7 in this work. A Kd of 44.3 nM was found for B9 in this work.

What follows are binders tested against T2, rat pIgR extracellular domain (assay: SPR, VHH captured by anti-Fc, ECD analyte).
Outline: as §1
A Kd of 11 nM was found for B10 in this work. A Kd of 2.77 nM was found for B1 in this work. A Kd of 0.897 nM was found for B2 in this work. A Kd of 1.64 nM was found for B3 in this work. A Kd of 3.02 nM was found for B4 in this work. A Kd of 1.46 nM was found for B5 in this work. A Kd of 1.58 nM was found for B6 in this work. A Kd of 2.27 nM was found for B7 in this work. A Kd of 35.2 nM was found for B8 in this work. A Kd of 22.5 nM was found for B11 in this work. A Kd of 6.19 nM was found for B9 in this work. A Kd of 6.45 nM was found for B12 in this work.
